Results taken from patent US20210253737A1.

Tests used:
[1] = biological target: carboxymethyl lysine conjugated to keyhole limpet hemocyanin (CML-KLH); assay: direct binding ELISA, CML-KLH coat 1 µg/mL, antibody at 50 µg/mL
[2] = biological target: carboxymethyl lysine conjugated to keyhole limpet hemocyanin (CML-KLH); assay: direct binding ELISA, CML-KLH coat 1 µg/mL, antibody at 0.07 µg/mL
[3] = biological target: carboxymethyl lysine conjugated to keyhole limpet hemocyanin (CML-KLH); assay: direct binding ELISA, CML-KLH coat 1 µg/mL, antibody at 0.21 µg/mL
[4] = biological target: carboxymethyl lysine conjugated to keyhole limpet hemocyanin (CML-KLH); assay: direct binding ELISA, CML-KLH coat 1 µg/mL, antibody at 0.62 µg/mL
[5] = biological target: carboxymethyl lysine conjugated to keyhole limpet hemocyanin (CML-KLH); assay: direct binding ELISA, CML-KLH coat 1 µg/mL, antibody at 1.85 µg/mL
[6] = biological target: carboxymethyl lysine conjugated to keyhole limpet hemocyanin (CML-KLH); assay: direct binding ELISA, CML-KLH coat 1 µg/mL, antibody at 5.56 µg/mL
[7] = biological target: carboxymethyl lysine conjugated to keyhole limpet hemocyanin (CML-KLH); assay: direct binding ELISA, CML-KLH coat 1 µg/mL, antibody at 16.67 µg/mL
[8] = biological target: carboxymethyl lysine conjugated to keyhole limpet hemocyanin (CML-KLH); assay: direct binding ELISA, CML-KLH coat 1 µg/mL, antibody at 0 µg/mL (buffer control well, background)

## carboxymethyl lysine MAb (Clone 318003), R&D Systems, Inc., catalog no. MAB3247 (antibody)
[1]
  OD450: 0.462 OD450
[2]
  OD450: 0.086 OD450
[3]
  OD450: 0.075 OD450
[4]
  OD450: 0.083 OD450
[5]
  OD450: 0.092 OD450
[6]
  OD450: 0.165 OD450
[7]
  OD450: 0.312 OD450
[8]
  OD450: 0.09 OD450
